According to patent US11643670B2, “Methods of enhancing chromosomal homologous recombination” (Massachusetts Institute of Technology, priority 2018, dated 2023):

Columns and labels:
Chd2 locus = experiment: Chd2^R1684H knock-in by PNI/CPI with RAD51, genotyping of F0 pups; assay type: in vivo, mouse; settings: 18 F0 pups, PNI and CPI, RAD51 protein 10 ng/μL
Procedure: tracrRNA, crRNAs, and ssODNs were synthesized by Integrated DNA Technologies (TABLE 1). All injection mixtures were prepared in a final volume of 50 μL according to the following methodology: Using RNase-free water, reagents, and consumables, crRNA (final concentration 0.61 μM), tracrRNA (final concentration 0.61 μM), and ultrapure Tris-HCl, pH 7.39 (final concentration 10 mM, ThermoFisher) were mixed and incubated at 95° C. for 5 minutes. The mixtures were cooled to room temperature for 10 minutes on the benchtop, and then, EnGen Cas9-NLS S. pyogenes (New England Biolabs) was added to a final concentration of 30 ng/μL. The mixtures were incubated at 37° C. for 15 minutes before adding any remaining components: ssODN (final concentration 3 ng/μL or 30 ng/μL), RAD51 (Creative Biomart, final concentration 10 ng/μL). Injection mixtures were stored on ice and briefly heated to 37° C. prior to injection. For experiments utilizing RS-1, embryos were cultured in KSOM-AA (EMD Millipore MR-121-D) with […] RS-1 (Sigma) dissolved in DMSO or DMSO (Sigma, 1:1000) for 24 hours, washed, and cultured in EmbryoMax FHM HEPES Buffered Medium (Sigma) until collection for genotyping.
Female mice (4-5 weeks old, C57BL/6N) were superovulated by IP injection of PMS (5 IU/mouse, three days prior to microinjection) and hCG (5 IU/mouse, 47 hours after PMS injection) and then paired with males. […]

RAD51 puncta = experiment: Immunocytochemistry for RAD51 puncta in zygotes; assay type: cell-based, mouse
Procedure: Zygotes were fixed overnight at 4° C. in 4% PFA+0.1% Tween-20 in PBS and then briefly transferred to acidified Tyrode's (Sigma T1788) to remove the zona. After washing in PBS+0.1% Tween-20 (PBST), zygotes were permeabilized in PBS+1% Triton X-100 for 1 hour at 4° C. and then blocked for 1 hour at room temperature in blocking solution (PBS+3% BSA+5% normal goat serum). Primary antibody (rabbit anti-RAD51, Abcam ab63801, 1:500) was diluted in blocking solution and applied to coverslips overnight at 4° C. Cells were washed 3 times in PBST before application of secondary antibody (goat anti-rabbit IgG conjugate, Alexa Fluor 488, ThermoFisher A-11008) diluted in blocking solution for 1 hour at room temperature. Nuclei were counterstained with DAPI and coverslips were mounted to slides with Fluoromount Aqueous Mounting Medium (Sigma F4680). Cells were imaged on an Olympus Fluoview FV1000 confocal microscope with a 60× oil immersion objective and variable digital zoom. Raw image files were exported to FIJI^41 for Z-projection (sum slices), channel splitting, and scale bar generation.
Nonetheless, to more directly test the timing of zygotic ICHR, immunocytochemistry (ICC) was performed for RAD51 in uninjected, RAD51-injected, Cas9-injected (with Chd2-targeting crRNA), and Cas9- and RAD51-injected zygotes at three time points: G1 [9 hours post-fertilization (hpf), 1-hour post-injection (hpi)], G2 (14hpf, 6hpf, post S-phase), and M-phase (16hpf, 8hpi).

Chd2^R1684H locus = experiment: Genotyping of individual blastomeres of 2-cell embryos; assay type: cell-based, mouse; settings: blastomeres collected at 24hpf, IVF strategy, co-injected with RAD51
Procedure: Zygotes were prepared by IVF as described above and cultured until 24hpf in FHM at 37° C. and 5% CO2. Two-cell embryos were transferred 10 at a time into room temperature acidified Tyrode's solution. Embryos were monitored by microscopy and were transferred back to FHM once the zona pellucida was dissolved. Individual blastomeres were collected via mechanical dissociation with a glass micropipette and transferred to 4 μL nuclease-free water. Blastomeres were then lysed and processed for genotyping as previously described.
After fertilization, the maternal and paternal pronuclei remain until the completion of S-phase, at which time the pronuclei fuse in preparation for mitosis. […] To begin to address the timing of zygotic ICHR, genotyping of individual blastomeres was performed in early 2-cell embryos generated through the IVF strategy and co-injected with RAD51. […] Because the blastomeres were collected early in the 2-cell stage, it is unlikely that all observed mosaicism resulted from editing events after the completion of mitosis. […]

B1: RAD51: recombinant human strand exchange protein RAD51 (Creative Biomart RAD51-134H), transcript variant 4 (protein, UniProt Q06609 2-339, looked up)
DNA repair protein RAD51 …: AMQMQLEANADTSVEEESFGPQPISRLEQCGINANDVKKLEEAGFHTVEAVAYAPKKELINIKGISEAKADKILAEAAKLVPMGFTTATEFHQRRSEIIQITTGSKELDKLLQGGIETGSITEMFGEFRTGKTQICHTLAVTCQLPIDRGGGEGKAMYIDTEGTFRPERLLAVAERYGLSGSDVLDNVAYARAFNTDHQTQLLYQASAMMVESRYALLIVDSATALYRTDYSGRGELSARQMHLARFLRMLLRLADEFGVAVVITNQVVAQVDGAAMFAADPKKPIGGNIIAHASTTRLYLRKGRGETRICKIYDSPCLPEAEAMFAINADGVGDAKD
homozygous KI efficiency (Chd2 locus): 55.5%
overall KI efficiency (pups with ≥1 KI allele/total pups) (Chd2 locus): 61.1%
number of RAD51 puncta per zygote (RAD51 puncta; G2 zygotes): single
zygotes Negative for RAD51 puncta (RAD51 puncta; number of zygotes, G2 (14hpf)): 25
zygotes Positive for RAD51 puncta (RAD51 puncta; number of zygotes, G2 (14hpf)): 6
mosaicism in embryos with an ICHR event in at least one cell (Chd2^R1684H locus): 4/6
